Test [1] concerns the target human platelet CD36 (human) (UniProt P16671). Put plainly: cell-based or functional assay.
The target of the next test is T1, BSA (bovine, UniProt P02769 25-607).
T1 construct: also called bovine serum albumin
As to the kind of experiment: plate binding assay, wells coated with BSA (10 µg/mL), detection with anti-human MRP-14 antibody and HRP-conjugated secondary antibody at 450 nm. The procedure:
High-protein binding plate (Nunc, Thermo Scientific) was coated with purified CD36 (Abcam) or BSA (10 μg/mL) overnight at 4° C. After blocking with 10% BSA at RT for 2 hours, purified human MRP-14 protein (0-2.5 μg/ml) was added and incubated for 2 hours at RT. After washing, plate was incubated with anti-human MRP-14 antibody for one hour followed by washing and incubation with HRP-conjugated secondary antibody that was detected with TMB substrate (Thermo Scientific) at 450 nm.

Two molecules from patent US20160297875A1 (CASE WESTERN RESERVE UNIVERSITY, published 2016) can be followed below.

T1 sequence (P02769 25-607 limits assumed): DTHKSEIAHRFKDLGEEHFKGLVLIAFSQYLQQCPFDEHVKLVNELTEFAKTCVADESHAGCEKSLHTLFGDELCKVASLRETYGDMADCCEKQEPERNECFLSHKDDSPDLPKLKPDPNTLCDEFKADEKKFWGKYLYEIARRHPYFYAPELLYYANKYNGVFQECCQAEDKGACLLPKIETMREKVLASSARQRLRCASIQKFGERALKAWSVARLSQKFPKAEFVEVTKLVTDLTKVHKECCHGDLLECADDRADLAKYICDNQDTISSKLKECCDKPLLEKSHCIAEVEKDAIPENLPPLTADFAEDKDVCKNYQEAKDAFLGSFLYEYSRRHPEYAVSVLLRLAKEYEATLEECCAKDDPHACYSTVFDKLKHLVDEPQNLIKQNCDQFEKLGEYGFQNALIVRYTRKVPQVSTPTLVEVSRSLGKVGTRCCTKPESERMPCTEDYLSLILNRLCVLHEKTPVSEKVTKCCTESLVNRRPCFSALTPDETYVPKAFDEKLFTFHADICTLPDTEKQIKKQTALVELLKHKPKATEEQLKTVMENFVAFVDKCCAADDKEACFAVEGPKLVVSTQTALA
human platelet CD36 (human), sequence (P16671 2-472 limits assumed): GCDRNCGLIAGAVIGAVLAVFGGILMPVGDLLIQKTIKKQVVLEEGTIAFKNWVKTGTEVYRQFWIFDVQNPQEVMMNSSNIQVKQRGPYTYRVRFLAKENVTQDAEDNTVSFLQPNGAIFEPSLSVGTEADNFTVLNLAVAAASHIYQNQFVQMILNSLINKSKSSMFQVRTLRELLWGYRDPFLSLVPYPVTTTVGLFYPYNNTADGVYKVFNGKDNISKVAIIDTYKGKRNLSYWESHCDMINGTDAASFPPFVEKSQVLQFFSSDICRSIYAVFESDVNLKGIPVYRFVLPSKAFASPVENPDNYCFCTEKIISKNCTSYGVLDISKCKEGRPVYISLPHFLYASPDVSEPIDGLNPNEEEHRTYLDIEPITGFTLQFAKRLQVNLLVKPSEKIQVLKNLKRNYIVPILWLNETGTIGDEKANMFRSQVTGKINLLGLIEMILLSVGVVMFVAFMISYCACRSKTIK

In test [1], “anti-human CD36 monoclonal antibody (clone FA6-152)” came in with a percentage of inhibition of shear-induced thrombus formation in anticoagulated human whole blood (antibody 10 µg/ml) of 53.8%.

B1: purified, recombinant human MRP-14 (ligand, UniProt P06702 1-114, looked up)
chain: MTCKMSQLERNIETIINTFHQYSVKLGHPDTLNQGEFKELVRKDLQNFLKKENKNEKVIEHIMEDLDTNADKQLSFEEFIMLMARLTWASHEKMHEGDEGPGHHHKPGLGEGTP
notes: Bought protein; also called purified MRP-14; purified human MRP-14 protein
B1: in the test with BSA, the binding result is “no binding (tested: 0-2.5 µg/ml MRP-14)”.
